Assay results from publication PMC11026164 (Nature Nanotechnology, 2024).

Columns and labels:
STZ-treated rats [1] = assay: Chronic dosing in STZ-treated rats; assay type: in vivo, Wistar rats; conditions: 40 IU kg^–1 day^–1 subcutaneous
Method: Rats were maintained on either treatment for 2–6 weeks, with BG measured morning and evening (prior and 1 h post-injection).
Following experimentation, the rats were euthanized by a single intraperitoneal injection of 75 mg kg^–1 ketamine and 10 mg kg^–1 xylazine in saline. Blood, liver and pancreas tissue samples were collected. Plasma was collected and analysed for biochemistry and lipid parameters as above.

[2] = Appearance and solubility by optical density at pH 3 to 9; assay type: physicochemical; conditions: 1 mg/ml solutions (5 mL), pH raised from 3 to 9 with 1 M NaOH, mean of n = 3 independent batches
Method: 1 mg/ml solutions (5 mL total volume) were prepared for each solution. pH was adjusted to pH 3 with 1 M HCl using a pH meter. Images were collected as the pH was raised by the addition of 1 M NaOH. Images show the product solution at each pH. […] Data expressed as the mean ± s.d. (n = 3 independent batches). ζ-potential of each sample was measured using DLS. Data expressed as the mean ± s.d. (n = 3 independent batches).

STZ-treated rats [3] = assay: ITT in STZ-treated rats; assay type: in vivo, Wistar rats; conditions: SC-INS 5–40 IU kg^–1; QD-INS–CS/GS 10–150 IU kg^–1; n = 5
Method: After a month of acclimation and animal handling, rats were given a single intraperitoneal injection of STZ (65 mg kg^–1) and provided with high-glucose water (10%) for 2 days. Animals were monitored and BG checked for 10 days post-injection. Diabetic rats were identified following two repeat BG measurements at >11.1 mmol l^–1.
ITT was performed as above; rats were treated with 5–40 IU kg^–1 SC-INS or 10–150 IU kg^–1 QD-INS–CS/GS. All the ITT data presented in this manuscript used n = 5 mice per group.

NOD mice = assay: Two-week chronic dosing in NOD mice; assay type: in vivo, NOD/ShiLtJ mice; conditions: chronic 2-week subcutaneous dosing
Method: Early and moderate diabetic mice were given a single treatment of SC-INS (1 IU kg^–1) or QD-INS–CS/GS (25 IU kg^–1), whereas late diabetics were given 4 and 100 IU kg^–1, respectively. An ITT was performed with BG collected at 0.25, 0.50, 0.75 and 1.00 h. […] BG was recorded daily and was maintained below 11.1 mmol l^–1 for the duration of treatment. […] BG was recorded daily and was maintained between 15 and 25 mmol l^–1 for the duration of treatment. […] Data points, mean ± s.d. shown (n = 5 biologically independent animals; one-way ANOVA with Tukey’s correction (a) and two-tailed unpaired t-test; α = 0.05 (c, e and f)).

NOD/ShiLtJ mice = assay: Insulin tolerance test (ITT) in NOD diabetic mice; assay type: in vivo
Method: Ten-week-old female NOD/ShiLtJ mice were obtained from the Animal Resource Centre in Perth. Animals were housed at the ANZAC Research Institute animal house on a 12-h light/dark cycle and provided with ad libitum access to food and water; 20–25 °C; 50–60% relative humidity; and bedding, ventilated caging systems and enrichment as per the ARRIVE guidelines. NOD/ShiLtJ mice were monitored weekly for BG changes, with mice developing T1D between weeks 12 and 24 in 90% of female mice. Diabetic mice were identified following two repeat BG measurements at >11.1 mmol l^–1.
ITT was performed with/without a 4-h fast. BG was measured using a handheld glucometer using Accu-Chek proforma strips. Blood was collected from a tail snip. […] The AUC was determined based on mmol l^–1 × min.

[4] = Tissue biodistribution of 14C-INS in mice; assay type: in vivo, C57BL/6J mice; conditions: for tissue distribution, in words: SC-INS 2 IU kg^–1 s.c., QD-INS–CS/GS and Oral-INS 20 IU kg^–1 by gavage
Method: (§1) For biodistribution studies, the mice were not fasted before either a subcutaneous injection of ^14C-INS (100,000 DPM, 2 IU kg^–1) or a gavage of QD-^14C-INS–CS/GS or ^14C-INS (100,000 DPM, 20 IU kg^–1). Gavage was performed using an oesophageal gavage needle and delivered in a single rapid dose (100 µl). Blood samples were collected from a tail snip (20 µl) over 0–8 h. Mice were euthanized by a single intraperitoneal injection of 100 mg kg^–1 ketamine and 10 mg kg^–1 xylazine in saline at 0.5, 2.0 and 24.0 h post-gavage. Then, 200–250 mg of tissue samples was collected from the liver, spleen, kidneys, lungs, muscles, fat and small intestine (duodenum) along with 100 μl of blood.
(§2) Tissue and blood samples were weighed, mixed with 1 ml solvable solution and incubated at 60 °C for 4 h to dissolve. Then, 0.2 ml of 30% H2O2 was added to reduce the dark colour saturation. […] Samples were mixed with 10 ml scintillation fluid (five measurements per sample). Baseline measurements were collected from control mice (n = 3) that were not treated with radioactive samples. Data were collected and analysed as disintegrations per minute.

[5] = Blood pharmacokinetics of 14C-INS in mice; assay type: in vivo, C57BL/6J mice; conditions: subcutaneous 2 IU kg^–1, 14C-INS in blood, n = 3
Method: as §1, §2

C57BL/6J mice = assay: Oral glucose tolerance test (oGTT); assay type: in vivo; conditions: n = 5; for effect of constituents on oGTT AUC: QD 0.6 µg, QD-INS 0.6 µg, 20 IU/kg, CS/GS 10 µg, QD-CS/GS 0.6 µg, 10 µg, insulin alone given orally 100 IU/kg, 15 min before glucose
Method: oGTT was performed following a 4-h fast. BG was measured using a handheld glucometer using Accu-Chek proforma strips. Blood was collected following a tail snip. BG was collected prior and for 90 min after an oral bolus of 2 g kg^–1 glucose solution. The AUC was determined based on the mmol l^–1 × min.

Stability by NMR = assay type: physicochemical; conditions: 1 mg/ml in MQ water, 23 °C, 60% humidity with light exposure, 7 and 28 days
Method: Individual sample stock was prepared in 90% MQ water and 10% D2O at pH 7. For NMR data acquisition, 550 µl samples from each stock were transferred to a 5 mm NMR tube. All one-dimensional ^1H experiments (water suppression pulse sequence, zgesgp; time domain, 32 K; relaxation delay, 2 s; spectral width, 12.5 ppm; number of scans, 256) were collected on a Bruker 800 MHz spectrometer using a Z-gradient TCI probe at 298 K. Two-dimensional [^1H,^1H] NOESY spectra were collected on a 600 MHz spectrometer with a cryoprobe at 298 K. Data were collected and processed using TopSpin. The water offset was set to 4.697 ppm. Before Fourier transformation from the time domain to the frequency domain, the time-domain data were zero filled twice, and an exponential decay function with a line-broadening factor of 5 Hz was multiplied. Data were processed using TopSpin. For stability measurements, the samples were stored at a lab temperature of ~295 ± 2 K.
Extended Data Fig. 4 NMR characterization and stability of QD-INS–CS/GS and 2D [^1H,^1H]-NOESY NMR characterization of CS/GS. […] Stability of samples were evaluated at 1 mg/ml, in MQ water solution, 23 °C, 60% humidity with light exposure for 7 and 28 days. […] (b) Left panel: 2D [^1H, ^1H]-NOESY spectrum of maltose. Right panel: 2D [^1H, ^1H]-NOESY spectrum of chitosan and glucose (CS/GS) copolymer. […]

[6] = HPLC–MS of released insulin; assay type: physicochemical; conditions: release by hydrolysis for 28 days at 23 °C
Method: Cleavage of CS/GS and removal of QDs were promoted by enzyme co-incubation (i). […] Release was promoted by hydrolysis for 28 days at 23 °C. […] Oleic acid was used as a positive control of cellular uptake and activity. […] Data points, mean ± s.d. shown [n = 3 independent experiments (a and b); n = 3 biologically independent cells (d and e) and one-way ANOVA with Tukey’s correction; α = 0.05]. a and b created with BioRender.com.

[7] = Insulin loading capacity on QDs (14C-INS, dialysis); assay type: physicochemical
Method: Three individual experiments (batches) were performed per group.

[8] = ζ-potential / isoelectric point by DLS (Zetasizer); assay type: physicochemical
Method: HD diameter, polydispersity index and ζ-potential were measured using the Zetasizer Nano ZS instrument (Malvern […]) at Sydney Analytical, the University of Sydney. CSIRO samples were measured on a Malvern Instruments Zetasizer Nano instrument ZEN3600 with a 4 mW 633 nm He–Ne gas laser. […] HD diameter and polydispersity index measurements were performed using backscatter (173°) data collection with three repeats of 12–15 measurements per sample. All the samples were analysed in disposable folded capillary cells. […] 1 mg/ml solutions (5 mL total volume) were prepared for each solution. pH was adjusted to pH 3 with 1 M HCl using a pH meter. Images were collected as the pH was raised by the addition of 1 M NaOH. Images show the product solution at each pH. […] Data expressed as the mean ± s.d. (n = 3 independent batches). ζ-potential of each sample was measured using DLS. Data expressed as the mean ± s.d. (n = 3 independent batches).

[9] = 0.5 h, subcutaneous 2 IU kg^–1, n = 3
[10] = 2 h, subcutaneous 2 IU kg^–1, n = 3

Substance: insulin human recombinant
- time of return of BG to baseline (STZ-treated rats [1]): ≤ 8 h
- pH at which the material is insoluble [2]: 5
- dose dependence in ITT (STZ-treated rats [3]): dose-dependent effect
- time of return of BG to baseline post-treatment (NOD mice): 8 h
- effect of escalating dosage on BG in ITT (NOD/ShiLtJ mice; SC-INS 0–2 IU kg^–1, QD-INS–CS/GS 0–50 IU kg^–1 by gavage): dose-dependent reduction in BG
- time to decrease of BG (NOD/ShiLtJ mice; subcutaneous 1 IU kg^–1): ≤ 15 min
- reduction in ITT AUC (NOD/ShiLtJ mice; subcutaneous 1 IU kg^–1, single dose, n = 5): 40%
- distribution in the blood [4, 9]: 40%
- distribution in the liver [4, 9]: 40%
- distribution in the muscles/fat [4, 9]: 20%
- distribution in the kidneys [4, 10]: 10%
- distribution in the liver [4, 10]: 50%
- distribution in the small intestine [4, 10]: 20%
- tissue distribution, in words ([4]; listed as Oral-INS): remained in the small intestine
- tissue distribution, in words ([4]; listed as SC-INS): greater distribution in the muscles and fat
- Cmax [5]: 0.1 IU ml^–1
- Tmax [5]: 15 min
- T½ [5]: 15 min
- effect of constituents on oGTT AUC (C57BL/6J mice): No effect on AUC
- hypoglycaemia (BG < 3.0 mmol l^–1) (C57BL/6J mice; high dose 5 IU kg^–1 subcutaneous): induced hypoglycaemia
- stability of samples by NMR (Stability by NMR): minimal changes

Substance: QD-INS: insulin bound to 3-MPA-capped Ag2S QDs by EDC/NHS chemical crosslinking
- released insulin present as monomer [6]: 87.5%
- maximum insulin retention (loading capacity of insulin onto QDs) ([7]; 14C-INS, 10 kDa dialysis, QDs 0.5–35.2 µg ml^–1, insulin 5.0 µg ml^–1, n = 3 batches): 80%
- insulin molecules per QD ([7]; based on the molar ratios): 1–2
- effect of constituents on oGTT AUC (C57BL/6J mice): no differences compared to controls
- ζ-potential at pH 7 [8]: negative
- ζ-potential between pH 3 and pH 6 ([8]; n = 3 independent batches): near-zero
